Laboratory results reported in patent US20090203610A1, “METHODS OF TREATING OBESITY OR DIABETES USING NT-4/5” (RINAT NEUROSCIENCE CORPORATION, priority 2004, published 2009).

What was measured:
Type in all cases: in vivo
[1] = tested on: NONcNZO-10 polygenic obese mice; test: Food intake in NONcNZO-10 mice (Example 4, Table 20)
Description: (§1) Test animals: 40 male NONcNZO-10 polygenic obese mice obtained from Jackson Laboratory at 10 weeks of age weighing in the range of 26-32 g were used in this study.
(§2) Administration of NT-4/5: NT-4/5 was produced in E. coli as descried in U.S. Pat. No. 6,184,360. The mice were divided into 6 groups of equivalent body weight and baseline blood glucose distribution (6-7 mice per group). […] A “paired-fed” control group received daily injection of vehicle, but were only fed with the same amount of food the 3 mg/kg group consumed the previous day. On the day when the treatment started (day 1), a baseline blood samples were collected for measuring glucose and triglyceride. Triglyceride level was measured on day 10. At the end of the study (day 12), a terminal blood sample was collected to determine glucose, triglyceride, electrolytes (Na, K, Cl), testoterone, corticosterone, thyroid hormone (total T4) and thyroid stimulating hormone (TSH) levels. Electrolytes, free testosterone, T4 and TSH levels of serum samples were measured by AniLytics (Gaithesburg, M.D) according to the standard protocols employed by the vendor. Other analytes were measured as described above. Body weight, food intake were monitored 5 days per week through out the entire study. Daily water intake was measured from day 5 through day 7.

[2] = tested on: NONcNZO-10 polygenic obese and diabetic mice; test: Non-fasting blood glucose and HbA1c in polygenic obese and diabetic mice NONcNZO-10 (Example 3); details: 2 or 10 mg/kg s.c. daily; dose dependent
Description: (§3) Test animals: 19 male NONcNZO-10 polygenic obese and diabetic mice from Jackson Laboratory (See Leiter et al., Diabetes 53 (Suppl. 1): S4-S11, 2004) at 9 weeks of age weighing in the range of 28-35 g were used in this study.
(§4) Administration of NT-4/5: NT-4/5 was obtained from Genentech Inc.
(§5) The mice were divided into 3 groups of equivalent body weight and baseline glucose distribution (6-7 mice per group). […] Seven days before starting the treatment (day −7), blood samples were collected from the mice as described previously for the determination of baseline levels of blood glucose and triglyceride. After the treatment started, blood samples were collected weekly to determine glucose and triglyceride levels as described in previous examples. Body weight and food intake were monitored 5 days a week through out the entire study.

DIO mice = test: Body weight, food intake, body composition and bone density (PIXImus) in DIO mice (Example 9)
Description: Test animals: Mice with diet induced obesity (DIO) were used in this study. 29 male C57BL/6J mice were weaned at 4 weeks of age. Immediately after weaning they were put on 58% high fat diet (D12331i, Research Diet) through out the study. The DIO mice at 13 weeks of age weighing in the range of 28-40 g were used in this study.
Administration of NT-4/5: NT-4/5 was obtained from Genentech Inc. or produced as described in U.S. Pat. No. 6,184,360. The mice were divided into 2 groups of equivalent body weight distribution (8 mice per group). The mice were acclimated individually in the Comprehensive Cage Monitoring System (CCMS, Columbus Instruments) for 2 days, in preparation for the indirect calorimetry, before the treatment started. Each group received 5 daily subcutaneous doses of either vehicle or 10 mg/kg of NT-4/5, respectively. Body weight and food intake were monitored 5 days per week through out the entire study. The CCMS monitoring and data analysis of oxygen consumption and carbon dioxide production were carried out according published and commonly accepted protocols as described at website of Jackson Laboratory. The body composition, i.e. percent lean body mass, fat content, and bone density was determined the day both before treatment started (day 0) and the final day of treatment (day 5) with a PIXImus Mouse Densitometer (GE Lunar Medical Systems, Madison, Wis.) using software version 1.46. Brommage et al., Am. J. Physiol. Endocrinol. Metab. 285: 454-459 (2003).

[3] = tested on: NONcNZO-10 polygenic obese mice; test: Water intake, electrolyte balance and endocrine functions in NONcNZO-10 mice (Example 4)
Description: as §1, §2
The effects of NT-4/5 treatment on water intake, electrolyte balance and endocrine functions were also tested. Water intake was measured from day 5 through 7. The electrolyte (i.e., Na, K, and Cl) concentrations were measured using the terminal blood samples taken on day 12. […] One way ANOVA followed by Dunnett's post-test were used for statistical analysis.

db/db female mice = test: Survival time in db/db mice (Example 12)
Description: Db/db female mice maintained as described in Example 1 were divided into two groups. Group 1 (8 mice) were administered with vehicle (PBS). Group 2 (6 mice) was each administered with NT-4/5 at the doses of 20 mg/kg. Both the vehicle and NT-4/5 were administered subcutaneously once daily from day 1 to day 26, and were then followed up for survival. Mortality is defined by the body wasting below 60% of the starting body weight (i.e., from about 40 g down to about 24 g) or natural death, whichever happened first.

[4] = tested on: NONcNZO-10 polygenic obese and diabetic mice; test: Body weight and food intake in NONcNZO-10 mice (Example 3)
Description: as §3, §4, §5

db/db mice = test: Daily food intake after single injection of NT-4/5 or pegylated NT-4/5 in db/db mice (Example 7, Table 22); details: for Daily food intake: single s.c. injection 5 mg/kg, db/db mice, mean
Description: Test animals: 30 female db/db mice at 7 weeks of age weighing in the range of 27-34 g were used in this study.
Administration of NT-4/5 and pegylated NT-4/5: Wild type NT-4/5 was obtained from Genentech Inc. The mice were divided into 5 groups of equivalent body weight distribution (6 mice per group). Each group received on the first day (day 1) of the study one and the only dose of either vehicle, 5 mg/kg of NT-4/5 produced as described above, 5 mg/kg of 2PEG-NT4-G1S, or 5 mg/kg of 1PEG-NT4-G1S. 2PEG-NT4-G1S represents one PEG molecule was conjugated to each NT-4/5 monomer in a NT-4/5 dimer, and 1PEG-NT4-G1S represents one PEG molecule was conjugated to only one monomer of the NT-4/5 dimer. 2PEG-NT4-G1S and 1PEG-NT4-G1S were separated by ion exchange. Four days before starting the treatment (day −4), blood samples were collected from the mice as described previously for the determination of baseline levels of serum glucose. On day 4 after the treatment started, blood samples were collected again to determine serum glucose level. Body weight and food intake were monitored 5 days a week through out the entire study.

[5] = 2 or 10 mg/kg s.c. daily, dose dependent

B1: NT-4/5: mature human neurotrophin-4/5 (SEQ ID NO:1), obtained from Genentech or produced in E. coli (protein, listed as Homo sapiens)
chain: GVSETAPASRRGELAVCDAVSGWVTDRRTAVDLRGREVEVLGEVPAAGGSPLRQYFFETRCKADNAEEGGPGAGGGGCRGVDRRHWVSECKAKQSYVRALTADAQGRVGWRWIRIDTACVCTLLSRTGRA
- food intake ([1]; 3 mg/kg): a significant reduction in food intake
- food intake ([1]; dose dependent manner): reduced
- long term glycemic control, HbA1c levels [2]: improved long term glycemic control
- non-fasting blood glucose level [2]: reduced non-fasting blood glucose level
- body fat content (DIO mice; 10 mg/kg s.c. daily): significantly reduced
- body weight (DIO mice; 10 mg/kg s.c. daily): significantly reduced
- food intake (DIO mice; 10 mg/kg s.c. daily): significantly reduced
- lean body mass (DIO mice; 10 mg/kg s.c. daily): but not the lean body mass
- Bone mineral density (mean±SEM) (DIO mice; day 0, 10 mg/kg group): 0.5235±0.0158 g/cm^2
- Bone mineral density (mean±SEM) (DIO mice; day 5, 10 mg/kg s.c. daily): 0.5452±0.0142 g/cm^2
- bone density versus vehicle (DIO mice; day 5, P<0.05): significantly different from that of the vehicle
- serum corticosterone levels ([3]; 0.1-3 mg/kg/day, day 12): did not significantly change
- testoterone levels ([3]; 0.1-3 mg/kg/day, day 12): did not significantly change
- thyroid stimulating hormone (TSH) level ([3]; compared to the vehicle control): no change
- Total thyroxine T4 reduction ([3]; daily 3 mg/kg, still within normal range): about 33%
- treatment groups showing a statistically significant difference from vehicle in water intake ([3]; day 5 through 7, 0.1, 0.3, 1 and 3 mg/kg): None
- median length of survival (db/db female mice; 20 mg/kg s.c. daily day 1 to 26, n=6): 257 days
- difference in median survival versus vehicle control (db/db female mice; vehicle 192.5 days, not statistically significant (P=0.1331)): 65 days
- body weight [4, 5]: reduced body weight
- food intake [4, 5]: reduced
- rebound hyperphagia or rebound body weight gain ([4]; 30 days after the treatment was terminated): No rebound hyperphagia or rebound body weight gain/overshoot was observed
- Daily food intake (db/db mice; Day 1): 6.6 g/day
- Daily food intake (db/db mice; Day 2): 5.2 g/day
- Daily food intake (db/db mice; Day 3): 7.3 g/day
- Daily food intake (db/db mice; Day 4): 6.3 g/day
- food intake (db/db mice; single subcutaneous injection, 5 mg/kg, significantly): reduced
